Series [1] deals with T1, UBP (Sulfolobus islandicus REY15A, UniProt F0NFD3 1-111).
T1 sequence: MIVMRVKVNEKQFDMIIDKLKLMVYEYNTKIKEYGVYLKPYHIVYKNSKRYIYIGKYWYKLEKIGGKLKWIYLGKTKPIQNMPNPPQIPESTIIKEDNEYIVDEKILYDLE
The series can be described thus: EMSA; EMSA: 50 mM K-acetate, 20 mM Tris-acetate, 10 mM Mg-acetate, 1 mM DTT, pH 7.9, 5-10% glycerol, 70 mM NaCl, 800 ng salmon sperm DNA per 10 ul, room temperature 10 min; footprinting same buffer, 4% glycerol, 8000 ng salmon sperm DNA; pull-down 25 mM HEPES pH 7.5, 150 mM NaCl, 10 mM MgCl, 100 uM ZnCl, 10 mM DTT, 48 C. The settings on record: protein: recombinant; tags: MBP tag removed by Factor Xa; 3 extra vector residues at N-terminus; chain copies: 2; label: 5'-32P; blunt. For orientation: A gel shift assay detects complexes by their altered migration in electrophoresis.

In series [2] the target is T1, UBP. The series can be described thus: EMSA; 370 nM UBP; EMSA: 50 mM K-acetate, 20 mM Tris-acetate, 10 mM Mg-acetate, 1 mM DTT, pH 7.9, 5-10% glycerol, 70 mM NaCl, 800 ng salmon sperm DNA per 10 ul, room temperature 10 min; footprinting same buffer, 4% glycerol, 8000 ng salmon sperm DNA; pull-down 25 mM HEPES pH 7.5, 150 mM NaCl, 10 mM MgCl, 100 uM ZnCl, 10 mM DTT, 48 C. The settings on record: protein: recombinant; tags: MBP tag removed by Factor Xa; 3 extra vector residues at N-terminus; chain copies: 2; label: 5'-32P; blunt.

A further series deals with T2, MCM-NT (Sulfolobus islandicus REY15A, UniProt F0NF15 1-266).
T2 sequence: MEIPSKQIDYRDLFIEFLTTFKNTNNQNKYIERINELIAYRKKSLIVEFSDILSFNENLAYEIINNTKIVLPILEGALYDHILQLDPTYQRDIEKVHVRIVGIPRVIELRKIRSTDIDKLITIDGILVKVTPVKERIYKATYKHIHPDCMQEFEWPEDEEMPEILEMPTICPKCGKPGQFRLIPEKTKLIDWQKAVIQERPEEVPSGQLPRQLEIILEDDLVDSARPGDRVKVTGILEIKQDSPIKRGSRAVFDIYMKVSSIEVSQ
The series can be described thus: EMSA; without UBP; EMSA: 50 mM K-acetate, 20 mM Tris-acetate, 10 mM Mg-acetate, 1 mM DTT, pH 7.9, 5-10% glycerol, 70 mM NaCl, 800 ng salmon sperm DNA per 10 ul, room temperature 10 min; footprinting same buffer, 4% glycerol, 8000 ng salmon sperm DNA; pull-down 25 mM HEPES pH 7.5, 150 mM NaCl, 10 mM MgCl, 100 uM ZnCl, 10 mM DTT, 48 C. The settings on record: protein: recombinant; tags: C-terminal 6xHis; chain copies: 6; label: 5'-32P; blunt.

Another series deals with T3, MCM (UniProt F0NF15 1-686).
T3 sequence: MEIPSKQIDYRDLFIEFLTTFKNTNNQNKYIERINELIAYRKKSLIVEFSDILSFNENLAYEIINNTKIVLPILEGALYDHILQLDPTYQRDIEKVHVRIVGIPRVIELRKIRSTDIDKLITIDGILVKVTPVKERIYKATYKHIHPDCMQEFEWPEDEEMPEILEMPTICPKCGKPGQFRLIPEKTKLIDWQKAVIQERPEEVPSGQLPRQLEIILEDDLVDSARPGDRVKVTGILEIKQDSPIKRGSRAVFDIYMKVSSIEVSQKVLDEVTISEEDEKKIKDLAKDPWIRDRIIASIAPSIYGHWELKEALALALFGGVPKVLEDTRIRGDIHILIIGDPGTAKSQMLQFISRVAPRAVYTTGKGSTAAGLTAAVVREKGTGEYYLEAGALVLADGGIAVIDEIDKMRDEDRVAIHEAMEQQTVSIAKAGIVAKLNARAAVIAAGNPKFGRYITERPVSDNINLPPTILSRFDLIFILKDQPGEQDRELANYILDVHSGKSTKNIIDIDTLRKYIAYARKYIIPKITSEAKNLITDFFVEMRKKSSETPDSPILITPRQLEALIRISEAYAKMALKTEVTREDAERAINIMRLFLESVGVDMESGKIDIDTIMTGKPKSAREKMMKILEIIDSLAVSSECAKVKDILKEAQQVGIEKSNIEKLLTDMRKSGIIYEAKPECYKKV
The series is described as above. The settings on record: protein: recombinant; chain copies: 6; label: 5'-32P; blunt.

The next series concerns the target T4, UBP;MCM-NT (Sulfolobus islandicus REY15A;Sulfolobus …, UniProt F0NFD3;F0NF15 1-111;1-266, |).
T4 sequence 1: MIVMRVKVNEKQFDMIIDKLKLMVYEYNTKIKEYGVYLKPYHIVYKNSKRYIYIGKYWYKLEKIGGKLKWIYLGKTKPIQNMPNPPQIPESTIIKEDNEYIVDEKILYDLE
T4 sequence 2: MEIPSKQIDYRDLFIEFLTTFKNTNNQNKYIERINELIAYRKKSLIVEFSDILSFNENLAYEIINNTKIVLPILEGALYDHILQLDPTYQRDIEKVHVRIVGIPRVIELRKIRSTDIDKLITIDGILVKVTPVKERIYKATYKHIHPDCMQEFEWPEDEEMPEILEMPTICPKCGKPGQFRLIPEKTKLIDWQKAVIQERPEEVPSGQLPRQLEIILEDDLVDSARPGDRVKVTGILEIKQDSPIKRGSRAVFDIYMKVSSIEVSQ
The series can be described thus: EMSA; 370 nM UBP; preferred over naked DNA; EMSA: 50 mM K-acetate, 20 mM Tris-acetate, 10 mM Mg-acetate, 1 mM DTT, pH 7.9, 5-10% glycerol, 70 mM NaCl, 800 ng salmon sperm DNA per 10 ul, room temperature 10 min; footprinting same buffer, 4% glycerol, 8000 ng salmon sperm DNA; pull-down 25 mM HEPES pH 7.5, 150 mM NaCl, 10 mM MgCl, 100 uM ZnCl, 10 mM DTT, 48 C. The settings on record: protein: recombinant;recombinant; tags: MBP tag removed by Factor Xa; 3 extra vector residues at N-terminus;C-terminal 6xHis; label: 5'-32P; blunt.

In a further series the target is T5, UBP;MCM (Sulfolobus islandicus REY15A;Sulfolobus …, UniProt F0NFD3;F0NF15 1-111;1-686, |).
T5 sequence 1: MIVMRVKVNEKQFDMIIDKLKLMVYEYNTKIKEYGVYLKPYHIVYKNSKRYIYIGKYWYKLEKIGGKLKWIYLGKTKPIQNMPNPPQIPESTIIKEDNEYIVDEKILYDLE
T5 sequence 2: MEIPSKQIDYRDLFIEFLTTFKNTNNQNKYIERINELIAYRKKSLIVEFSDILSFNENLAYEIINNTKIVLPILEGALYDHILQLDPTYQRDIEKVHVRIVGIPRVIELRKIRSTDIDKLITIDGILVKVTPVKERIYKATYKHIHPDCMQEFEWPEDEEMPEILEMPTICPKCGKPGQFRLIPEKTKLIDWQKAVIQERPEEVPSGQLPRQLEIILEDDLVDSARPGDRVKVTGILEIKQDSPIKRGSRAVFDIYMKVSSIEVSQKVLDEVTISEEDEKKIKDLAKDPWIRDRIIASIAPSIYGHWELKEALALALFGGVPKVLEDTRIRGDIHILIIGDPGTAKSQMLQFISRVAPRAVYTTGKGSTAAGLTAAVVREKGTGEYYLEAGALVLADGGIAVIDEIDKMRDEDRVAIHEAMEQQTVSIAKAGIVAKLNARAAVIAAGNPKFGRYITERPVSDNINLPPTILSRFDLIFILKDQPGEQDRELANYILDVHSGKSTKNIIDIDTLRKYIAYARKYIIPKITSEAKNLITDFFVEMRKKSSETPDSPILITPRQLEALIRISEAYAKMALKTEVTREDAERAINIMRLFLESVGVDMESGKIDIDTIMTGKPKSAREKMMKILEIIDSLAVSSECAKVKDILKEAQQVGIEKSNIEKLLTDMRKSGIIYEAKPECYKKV
The series is described as above. The settings on record: protein: recombinant;recombinant; tags: MBP tag removed by Factor Xa; 3 extra vector residues at N-terminus;; label: 5'-32P; blunt.

Series [3] concerns the target T1, UBP. The series can be described thus: EMSA; up to 740 nM UBP; EMSA: 50 mM K-acetate, 20 mM Tris-acetate, 10 mM Mg-acetate, 1 mM DTT, pH 7.9, 5-10% glycerol, 70 mM NaCl, 800 ng salmon sperm DNA per 10 ul, room temperature 10 min; footprinting same buffer, 4% glycerol, 8000 ng salmon sperm DNA; pull-down 25 mM HEPES pH 7.5, 150 mM NaCl, 10 mM MgCl, 100 uM ZnCl, 10 mM DTT, 48 C. The settings on record: protein: recombinant; tags: MBP tag removed by Factor Xa; 3 extra vector residues at N-terminus; chain copies: 2; label: 5'-32P.

Another series deals with T6, UBP (DNA co-crystal) (Sulfolobus islandicus REY15A, UniProt F0NFD3 1-111).
T6 sequence: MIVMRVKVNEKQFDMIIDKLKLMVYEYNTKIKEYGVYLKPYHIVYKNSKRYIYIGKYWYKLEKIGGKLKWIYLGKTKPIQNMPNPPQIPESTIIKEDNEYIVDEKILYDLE
The series can be described thus: X-ray crystallography; 1.8 A; EMSA: 50 mM K-acetate, 20 mM Tris-acetate, 10 mM Mg-acetate, 1 mM DTT, pH 7.9, 5-10% glycerol, 70 mM NaCl, 800 ng salmon sperm DNA per 10 ul, room temperature 10 min; footprinting same buffer, 4% glycerol, 8000 ng salmon sperm DNA; pull-down 25 mM HEPES pH 7.5, 150 mM NaCl, 10 mM MgCl, 100 uM ZnCl, 10 mM DTT, 48 C. The settings on record: protein: recombinant; tags: MBP tag removed by Factor Xa; 3 extra vector residues at N-terminus; blunt.

B1: ucm 50 bp WT (P5/P6) (dsDNA)
DNA 1: TTGTTATAATTAGATAACCATTATACAAAAGAATTGTATAAGAATGAAAT
DNA 2: ATTTCATTCTTATACAATTCTTTTGTATAATGGTTATCTAATTATAACAA
Turning to B1, the binding result in the series with UBP [1] is on record as “binds”.

B2: oriC1 140 bp (P21/P22) (dsDNA)
DNA 1: TATTTTGAGCAACATTTTGTTATAATTAGATAACCATTATACAAAAGAATTGTATAAGAATGAAATCAAAGCTTATTTTATGTCACTAGAATCTCCAAATGAAATACTGGGGTAGGCCTTGTTTATGACACAACTTACAT
DNA 2: ATGTAAGTTGTGTCATAAACAAGGCCTACCCCAGTATTTCATTTGGAGATTCTAGTGACATAAAATAAGCTTTGATTTCATTCTTATACAATTCTTTTGTATAATGGTTATCTAATTATAACAAAATGTTGCTCAAAATA
On to B2, for which the binding result with UBP [2], in the series with MCM-NT, in the series with MCM, with UBP;MCM-NT and in the series with UBP;MCM was “binds” throughout.

B3: ucm 20 nt lower strand (P18) (ssDNA)
DNA: AATTCTTTTGTATAATGGTT
Consider B3, for which the binding result in the series with UBP [3] was “no binding”.

B4: 12 bp ucm crystal DNA (P49/P50) (dsDNA)
DNA 1: ATTATACAAAAG
DNA 2: CTTTTGTATAAT
modifications: 5-bromo-dU at positions 2 and 5 of strand 1 and 2 and 9 of strand 2 (written T)
In the case of B4, the binding result with UBP (DNA co-crystal) is reported as “binds”.

B5: scr 50 bp (P7/P8) (dsDNA)
DNA 1: ATAATATTTGAAATTAAATGCTTAGTGAATATACGTACAGAATAAAAATT
DNA 2: AATTTTTATTCTGTACGTATATTCACTAAGCATTTAATTTCAAATATTAT
In the case of B5, the binding result with UBP [1] was “no binding”.

For the origin of these results see paper PMC12141716, “An archaeal nucleoid-associated protein binds an essential motif in DNA replication origins” (Nature Communications, 2025).
